Assay results as given in US10465005B2, “JAML specific binding agents, antibodies, and uses related thereto” (Emory University, priority 2011, dated 2019).
“Also recorded” adds a separate entry of the source.

B1: DW100: monoclonal anti-human JAML antibody (IgG1,κ), hybridoma ATCC PTA-13051; VH SEQ ID NO:19, VL SEQ ID NO:22 (antibody, V domains shown)
VH: DVQLVESGAELVRPGASKLSCKALAYTFTDYEMHWVKQTPVHGLEWIGIIHPGSGGTVYNQKFKGKATLTADKSSSTAYMELSSLTSEDSTVYYCTRRRYYGSSYNWYFDVWGAGN
VL: VLTQSPASLAASVGETVTITCRASENIYYSLAWYQQKQGKSPQLLIYNANSLEDGVPSRFSGSGSGTQYSLKINSMQPEDTATYFCEQTYDVPLTFGAGTKLEL
B2: sJAML: recombinant soluble fragment of JAML.D1D2 tagged with 10 His residues at the C-terminus (protein)
chain: LNDLNVSPPELTVHVGDSALMGCVFQSTEDKCIFKIDWTLSPGEHAKDEYVLYYYSNLSVPIGRFQNRVHLMGDILCNDGSLLLQDVQEADQGTYICEIRLKGESQVFKKAVVLHVLPEEPKELMVHVGGLIQMGCVFQSTEVKHVTKVEWIFSGRRAKEEIVFRYYHKLRMSVEYSQSWGHFQNRVNLVGDIFRNDGSIMLQGVRESDGGNYTCSIHLGNLVFKKTIVLHVSPEEPRTL

How the values were obtained:
[1] = test system: T84 epithelial monolayers; experiment: Scratch wound closure of epithelial monolayers; format: cell-based, human; settings: for epithelial wound closure: T84 scratch wound, monitored over 72 h, FIG. 10
Procedure: T84 epithelial monolayers grown to confluence were wounded by introduction of a single linear scratch wound using a 20-μl plastic pipette tip. Wound closure was monitored over 72 h in the absence or presence of PMN or sJAML. The scale bar is 10 μm.
Whether JAML binding to CAR would affect epithelial wound restitution was investigated. […] If soluble JAML interactions with CAR play a role, the effect could be reversed with the addition of blocking DW100 mAb.
Cell grown in 24-well tissue culture plates received one linear wound using a 20-μl plastic pipette tip attached to low suction. Wounded monolayers were washed once with PBS to remove detached cells and debris, and incubated with the appropriate stimulus added to the medium. The rate of migration was measured by determining the wound area immediately after wounding (t=0) and at the indicated time points. The data are presented as the area of the wound at each time point normalized to t=0. The experiments were carried out in triplicates per condition, and the data shown are representative of 4 independent experiments.

T84 and CACO-2 cells = experiment: Cell adhesion assay, PMN and HL60 to epithelial monolayers; format: cell-based, human; settings: sJAML-His and mAbs 30 μg/ml, 1 hour
Procedure: PMN cells were pre-labeled with CellTracker™ Green (CMFDA). Labeled cells (2.5×10^5/well) were allowed to adhere for 1 hour to T84 (white bars) and CACO-2 (black bars) cells grown to confluency in 24 well tissue culture microtiter wells, in the absence (NoTx) or presence of soluble JAML (sJAML-His), 30 μg/ml), anti-JAML monoclonal antibodies DW100 and DW216 (30 μg/ml), or alternatively to stable CACO-2 cells lacking CAR. Non-adherent HL60 cells and PMN were removed by 3 washes with HBSS. Adherent cells were harvested by treating the monolayers with trypsin, followed by lysis with 0.1% Triton 100×. Fluorescence intensity was measured using FluoStar Galaxy plate reader at excitation/emission wavelengths of 485/535 nm.
JAML-CAR interactions are involved in PMN adhesion to epithelium. […] Indeed adhesion of both HL-60 cells and PMNs to epithelium is partly dependent upon JAML-CAR binding. […] HL-60 cells and PMNs also adhered to a lesser degree to Caco2 cells where the expression of CAR was stably knocked down, confirming the specificity of the adhesion events to JAML-CAR interactions.
Epithelial cells (T84/Caco-2) were seeded on 24-well plates (10^6 cells/well) and cultured until they reached confluence. […] Fluorescence intensity was measured using FluoStar Galaxy plate reader at excitation/emission wavelengths of 485/535 nm. […]

[2] = test system: CHO-JAML and CHO-CAR cells; experiment: CHO-JAML / CHO-CAR cell aggregation assay; format: cell-based; settings: for aggregation of mixed CHO-CAR and CHO-JAML cultures (number and size of clusters): antibodies 30 μg/ml, 1 hour at 37° C., FIG. 1D
Procedure: FIG. 1D. CHO-K1 cells stably transfected with either JAML (CHO-JAML) or CAR (CHO-CAR) proteins were allowed to aggregate (1 hour at 37° C. on a shaker at 50 RPM) separately (1×10^6 cells/BSA coated 3 ml Petri dish), or as a mix (5×10^5 each cell type/dish), in the absence or presence of anti-JAML monoclonal antibodies DW100, DW55 and DW216 (30 μg/ml). The number of clusters (left) and the area of the clusters (right) were quantified in 7 randomly chosen fields using light microscopy. The results are representative of four independent experiments. CHO-CAR and CHO-JAML in mixed cultures formed large aggregates.
Because certain antibodies recognize the membrane distal domain of JAML, their ability to inhibit binding to CAR was tested. By ELISA, the levels of soluble CAR-GST bound to immobilized sJAML-His preincubated with anti JAML antibodies was measured. […] Thus, these antibodies recognize three different epitopes on JAML and that both DW100 and DW55 bind epitopes close to the JAML binding site. Using a cell aggregation assay, the possibility that DW100 could inhibit the binding of JAML to CAR expressed on the surface of cells was examined. […] This again confirms previously described JAML binding to CAR, as well as the specificity of DW100 (blocking) and DW216 (non-blocking) Abs to JAML.

[3] = test system: T84 intestinal epithelial cells; experiment: EdU incorporation cell proliferation at wound edge; format: cell-based, human; settings: FIG. 10C,D
Procedure: FIG. 10C. Epithelial monolayers were wounded as described above and cell proliferation at the wound edge after 24 hours incubation with either sJAML or sSIRPa (30 μg/ml), with or without the addition of DW100 mAb was assessed by EdU incorporation assay. Data presented as proliferating cells (positively stained with EdU) out of all cells in the field multiplied by 100. Cells were counted in 7 randomly selected fields in 4 independent experiments.
JAML binding CAR to inhibit epithelial cell proliferation was investigated as a possible mechanism for impeding wound healing.
Cell proliferation was assessed in […] (EdU) incorporation assay, by using a Click-iT EdU Alexa 488 cell proliferation kit (Invitrogen). Cell apoptosis was assessed by staining with sulforhodamine labeled caspase inhibitor SR-VAD-FMK from APO LOGIX
Sulforhodamine Caspase Detection kit (Cell Technology). Scratch wounded or confluent cells were subjected to treatment as indicated in the figure were incubated for 24 hrs at 370 C before addition of EdU or APO LOGIX Sulforhodamine Caspase Detection kits. At least 5 random fields per each condition were analyzed, the data are presented as % proliferating/apoptotic cells out of total cells in the field.

Row | Molecule | reversal of PMN or sJAML inhibition of wound closure ([1]; T84, mAb 30 μg/ml, FIG. 10A,B) | adhesion of HL60 cells and PMN to epithelial monolayer (T84 and CACO-2 cells; FIG. 8) | aggregation of CHO-JAML cells alone (JAML-JAML) ([2]; FIG. 1) | aggregation of mixed CHO-CAR and CHO-JAML cultures (number and size of clusters) [2] | block of soluble JAML inhibition of proliferation ([3]; EdU) | epithelial wound closure [1] | epithelial wound closure ([1]; listed as Soluble JAML) | adhesion of HL60 cells and PMN to epithelial monolayer (T84 and CACO-2 cells; FIG. 8, listed as soluble JAML) | proliferation of epithelial cells at wound edge (EdU) ([3]; 30 μg/ml, 24 hours)
1 | B1 | reversed this inhibition; also recorded: significantly improved wound restitution | decreased adhesion of HL60 cells and PMN to epithelial monolayer; also recorded: significantly decreased | could not be blocked with DW100 mAb | could be blocked with DW100; also recorded: significantly inhibited aggregation of mixed cultures of CHO transfectants; also recorded: significantly decreased both the size and the number of formed clusters | blocked by addition of DW100 |  |  |  | 
2 | B2 |  |  |  | blocked |  | inhibited wound closure | delayed both epithelial barrier recovery and wound restitution | decreased adhesion of HL60 cells and PMN to epithelial monolayer; also recorded: significantly decreased | significantly inhibits proliferation of T84 intestinal epithelial cells
